Experimental findings from paper PMC8307404, “Crystal Structure-Guided Design of Bisubstrate Inhibitors and Photoluminescent Probes for Protein Kinases of the PIM Family” (Molecules, 2021) are described below.

Molecules are shown by their SMILES. Square brackets hold non-standard residues; d marks the D form. Peptide text beside a SMILES is read from it. * marks the point of attachment. X3 = O=C(CCCCCNCc1nc2c(sc3cc(Br)cnc32)c(=O)[nH]1)*

Common to all, as to test: Kinase profiling (radiometric filter-binding)
What all share (type): biochemical

The target of one data set is MNK1 (Homo sapiens, UniProt Q9BUB5). As to conditions: MNK1, 1 µM inhibitor; read-out: Residual activity, %. The method, boiled down:
(§1)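 Activity remaining (% of control without inhibitor) at 1 µM final compound; human kinases, ATP ≤ KM, radiometric filter binding.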

In another data set the target is T1, EIF2AK3 (Homo sapiens, UniProt Q9NZJ5).
T1 sequence (Q9NZJ5 30-1116): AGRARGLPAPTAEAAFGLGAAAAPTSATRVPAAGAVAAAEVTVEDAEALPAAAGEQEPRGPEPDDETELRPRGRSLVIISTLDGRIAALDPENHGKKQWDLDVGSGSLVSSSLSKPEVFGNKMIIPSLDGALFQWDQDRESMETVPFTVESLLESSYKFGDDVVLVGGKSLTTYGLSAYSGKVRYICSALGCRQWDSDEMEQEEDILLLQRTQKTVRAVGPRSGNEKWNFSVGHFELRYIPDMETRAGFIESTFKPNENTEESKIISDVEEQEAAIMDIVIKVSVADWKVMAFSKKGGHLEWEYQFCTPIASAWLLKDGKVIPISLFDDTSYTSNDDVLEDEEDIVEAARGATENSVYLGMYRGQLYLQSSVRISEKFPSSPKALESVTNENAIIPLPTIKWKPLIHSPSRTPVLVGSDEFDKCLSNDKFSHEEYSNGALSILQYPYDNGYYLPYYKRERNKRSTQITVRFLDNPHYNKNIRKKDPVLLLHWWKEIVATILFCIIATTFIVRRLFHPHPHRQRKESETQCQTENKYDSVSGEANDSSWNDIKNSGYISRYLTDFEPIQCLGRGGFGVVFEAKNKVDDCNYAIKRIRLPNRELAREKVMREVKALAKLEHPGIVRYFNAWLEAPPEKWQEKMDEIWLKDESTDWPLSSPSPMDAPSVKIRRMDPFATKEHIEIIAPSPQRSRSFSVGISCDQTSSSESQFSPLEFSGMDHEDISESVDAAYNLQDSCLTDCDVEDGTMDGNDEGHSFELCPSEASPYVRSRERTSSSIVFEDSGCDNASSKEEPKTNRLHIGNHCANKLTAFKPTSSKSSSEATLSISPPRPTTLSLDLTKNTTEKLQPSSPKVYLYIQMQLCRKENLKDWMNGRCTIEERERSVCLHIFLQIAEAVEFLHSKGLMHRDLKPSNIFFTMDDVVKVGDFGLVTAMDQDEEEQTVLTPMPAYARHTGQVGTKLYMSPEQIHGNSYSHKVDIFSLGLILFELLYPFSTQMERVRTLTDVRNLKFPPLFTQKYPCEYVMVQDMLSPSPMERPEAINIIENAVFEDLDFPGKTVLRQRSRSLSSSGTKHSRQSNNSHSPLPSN
To be noted: EIF2AK3, 1 µM inhibitor; read-out: Residual activity, %. The method, boiled down:
as §1

Another data set has as its target MEKK1 (Homo sapiens, UniProt Q13233). As to conditions: MEKK1, 1 µM inhibitor; read-out: Residual activity, %. The method, boiled down: as §1
Another data set concerns the target T2, BRSK1 (Homo sapiens, UniProt Q8TDC3).
T2 sequence (Q8TDC3 1-778): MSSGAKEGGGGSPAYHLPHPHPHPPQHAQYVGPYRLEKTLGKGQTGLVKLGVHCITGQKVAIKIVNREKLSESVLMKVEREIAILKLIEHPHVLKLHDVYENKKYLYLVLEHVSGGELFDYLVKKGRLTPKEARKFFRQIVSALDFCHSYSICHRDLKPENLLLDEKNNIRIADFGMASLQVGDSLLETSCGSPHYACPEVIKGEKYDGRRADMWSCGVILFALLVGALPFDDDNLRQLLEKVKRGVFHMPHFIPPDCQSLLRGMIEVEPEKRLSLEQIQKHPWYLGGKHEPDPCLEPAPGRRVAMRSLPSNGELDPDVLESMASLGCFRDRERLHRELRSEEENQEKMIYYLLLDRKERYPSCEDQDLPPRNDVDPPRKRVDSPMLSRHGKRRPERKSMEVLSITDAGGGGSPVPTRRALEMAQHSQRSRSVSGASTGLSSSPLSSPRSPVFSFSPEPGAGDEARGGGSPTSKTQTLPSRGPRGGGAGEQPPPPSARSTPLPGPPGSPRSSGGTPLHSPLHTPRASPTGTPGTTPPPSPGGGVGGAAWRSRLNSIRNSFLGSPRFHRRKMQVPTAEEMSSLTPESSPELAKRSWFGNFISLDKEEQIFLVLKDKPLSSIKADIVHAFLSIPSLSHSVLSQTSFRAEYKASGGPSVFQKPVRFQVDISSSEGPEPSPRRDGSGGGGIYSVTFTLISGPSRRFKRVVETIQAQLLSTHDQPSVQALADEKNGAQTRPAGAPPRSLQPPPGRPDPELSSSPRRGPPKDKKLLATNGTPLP
As to conditions: BRSK1, 1 µM inhibitor; read-out: Residual activity, %. The method, boiled down: as §1

A further data set addresses STK33 (Homo sapiens, UniProt Q9BYT3). To be noted: STK33, 1 µM inhibitor; read-out: Residual activity, %. The essentials:
as §1

A further data set has as its target EPH-A4 (Homo sapiens, UniProt P54764). To be noted: EPH-A4, 1 µM inhibitor; read-out: Residual activity, %. The method, boiled down:
as §1

A further data set concerns the target MARK1 (Homo sapiens, UniProt Q9P0L2). As to conditions: MARK1, 1 µM inhibitor; read-out: Residual activity, %. The essentials: as §1

Sequence of STK33 (Q9BYT3 whole entry): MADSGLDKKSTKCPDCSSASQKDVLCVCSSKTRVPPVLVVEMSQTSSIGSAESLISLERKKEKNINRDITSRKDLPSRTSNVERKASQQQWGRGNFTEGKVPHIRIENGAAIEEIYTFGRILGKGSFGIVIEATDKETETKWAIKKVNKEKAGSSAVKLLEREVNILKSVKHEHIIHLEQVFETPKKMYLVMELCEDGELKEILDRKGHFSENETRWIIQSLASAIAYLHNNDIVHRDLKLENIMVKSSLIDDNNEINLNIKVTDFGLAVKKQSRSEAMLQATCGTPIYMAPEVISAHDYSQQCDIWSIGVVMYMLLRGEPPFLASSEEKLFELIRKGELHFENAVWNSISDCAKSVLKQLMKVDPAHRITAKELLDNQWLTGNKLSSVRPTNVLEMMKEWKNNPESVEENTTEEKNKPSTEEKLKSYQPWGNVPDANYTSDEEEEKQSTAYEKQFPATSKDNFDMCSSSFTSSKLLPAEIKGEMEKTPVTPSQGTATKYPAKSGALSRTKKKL
Sequence of MARK1 (Q9P0L2 whole entry): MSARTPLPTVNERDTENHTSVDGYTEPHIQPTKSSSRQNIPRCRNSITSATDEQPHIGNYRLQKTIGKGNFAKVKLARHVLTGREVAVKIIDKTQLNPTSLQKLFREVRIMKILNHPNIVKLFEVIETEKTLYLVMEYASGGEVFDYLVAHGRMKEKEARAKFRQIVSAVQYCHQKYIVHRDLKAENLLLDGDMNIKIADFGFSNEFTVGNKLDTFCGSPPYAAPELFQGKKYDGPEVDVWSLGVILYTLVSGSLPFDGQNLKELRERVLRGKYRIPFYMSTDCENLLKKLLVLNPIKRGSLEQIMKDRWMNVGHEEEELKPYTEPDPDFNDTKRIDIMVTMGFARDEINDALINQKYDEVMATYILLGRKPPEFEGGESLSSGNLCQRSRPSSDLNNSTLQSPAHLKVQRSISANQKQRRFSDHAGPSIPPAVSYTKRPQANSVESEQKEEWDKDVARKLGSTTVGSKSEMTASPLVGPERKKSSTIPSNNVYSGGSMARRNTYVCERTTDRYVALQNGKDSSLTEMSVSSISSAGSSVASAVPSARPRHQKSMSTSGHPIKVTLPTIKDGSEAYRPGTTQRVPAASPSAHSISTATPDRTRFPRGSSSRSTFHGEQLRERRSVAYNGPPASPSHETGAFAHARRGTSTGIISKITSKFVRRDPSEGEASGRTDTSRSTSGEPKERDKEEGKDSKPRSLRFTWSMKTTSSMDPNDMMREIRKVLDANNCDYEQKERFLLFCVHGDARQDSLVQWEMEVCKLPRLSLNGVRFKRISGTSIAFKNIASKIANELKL
Sequence of MNK1 (Q9BUB5 whole entry): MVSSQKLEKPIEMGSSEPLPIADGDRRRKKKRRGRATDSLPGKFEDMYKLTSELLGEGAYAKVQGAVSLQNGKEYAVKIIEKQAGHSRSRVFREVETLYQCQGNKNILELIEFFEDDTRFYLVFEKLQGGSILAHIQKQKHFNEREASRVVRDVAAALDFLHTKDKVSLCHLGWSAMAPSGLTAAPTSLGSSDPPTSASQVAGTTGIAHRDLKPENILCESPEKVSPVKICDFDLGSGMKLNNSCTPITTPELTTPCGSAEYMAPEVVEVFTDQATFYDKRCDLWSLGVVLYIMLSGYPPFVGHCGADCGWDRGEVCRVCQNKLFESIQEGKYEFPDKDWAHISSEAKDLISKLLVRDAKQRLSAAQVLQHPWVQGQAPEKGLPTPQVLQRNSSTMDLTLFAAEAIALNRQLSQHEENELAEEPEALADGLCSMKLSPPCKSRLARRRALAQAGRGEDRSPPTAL
Sequence of MEKK1 (Q13233 whole entry): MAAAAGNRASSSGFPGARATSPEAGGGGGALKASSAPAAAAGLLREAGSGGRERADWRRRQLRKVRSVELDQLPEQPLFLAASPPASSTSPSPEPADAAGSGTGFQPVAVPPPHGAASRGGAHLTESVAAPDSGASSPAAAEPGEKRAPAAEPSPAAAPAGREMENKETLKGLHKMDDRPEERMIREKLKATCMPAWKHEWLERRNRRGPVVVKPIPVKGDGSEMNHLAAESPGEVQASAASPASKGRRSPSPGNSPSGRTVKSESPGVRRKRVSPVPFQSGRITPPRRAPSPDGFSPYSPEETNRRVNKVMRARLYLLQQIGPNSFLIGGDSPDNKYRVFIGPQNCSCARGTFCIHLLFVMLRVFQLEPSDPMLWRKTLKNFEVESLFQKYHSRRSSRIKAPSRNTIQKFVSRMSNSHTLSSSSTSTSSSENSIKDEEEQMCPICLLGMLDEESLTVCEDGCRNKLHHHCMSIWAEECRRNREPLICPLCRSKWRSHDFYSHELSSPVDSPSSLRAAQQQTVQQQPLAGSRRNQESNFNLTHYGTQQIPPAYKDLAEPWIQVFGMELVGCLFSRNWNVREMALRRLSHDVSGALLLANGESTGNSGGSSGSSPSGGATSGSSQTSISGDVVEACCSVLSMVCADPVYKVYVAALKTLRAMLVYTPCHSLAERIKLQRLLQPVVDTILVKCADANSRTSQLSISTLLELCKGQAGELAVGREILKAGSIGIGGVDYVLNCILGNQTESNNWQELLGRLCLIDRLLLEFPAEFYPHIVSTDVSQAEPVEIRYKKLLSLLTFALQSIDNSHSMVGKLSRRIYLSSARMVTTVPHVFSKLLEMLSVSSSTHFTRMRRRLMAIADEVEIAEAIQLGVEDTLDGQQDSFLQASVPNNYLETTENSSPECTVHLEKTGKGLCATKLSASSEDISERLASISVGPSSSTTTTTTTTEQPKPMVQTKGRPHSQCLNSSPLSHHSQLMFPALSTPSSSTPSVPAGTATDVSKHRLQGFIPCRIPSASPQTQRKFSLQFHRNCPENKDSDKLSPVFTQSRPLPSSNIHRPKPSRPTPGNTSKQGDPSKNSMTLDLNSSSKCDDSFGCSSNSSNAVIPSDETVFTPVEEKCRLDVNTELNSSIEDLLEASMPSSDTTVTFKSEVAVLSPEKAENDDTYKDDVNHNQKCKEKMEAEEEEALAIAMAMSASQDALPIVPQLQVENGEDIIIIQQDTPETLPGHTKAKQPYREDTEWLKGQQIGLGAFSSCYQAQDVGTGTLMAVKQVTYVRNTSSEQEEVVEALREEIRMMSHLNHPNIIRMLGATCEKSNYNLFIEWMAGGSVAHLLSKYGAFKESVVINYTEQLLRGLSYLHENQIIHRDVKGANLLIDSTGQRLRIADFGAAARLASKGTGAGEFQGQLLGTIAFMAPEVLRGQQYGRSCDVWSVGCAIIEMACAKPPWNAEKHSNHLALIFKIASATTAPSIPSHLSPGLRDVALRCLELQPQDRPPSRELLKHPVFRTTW
Sequence of EPH-A4 (P54764 20-986): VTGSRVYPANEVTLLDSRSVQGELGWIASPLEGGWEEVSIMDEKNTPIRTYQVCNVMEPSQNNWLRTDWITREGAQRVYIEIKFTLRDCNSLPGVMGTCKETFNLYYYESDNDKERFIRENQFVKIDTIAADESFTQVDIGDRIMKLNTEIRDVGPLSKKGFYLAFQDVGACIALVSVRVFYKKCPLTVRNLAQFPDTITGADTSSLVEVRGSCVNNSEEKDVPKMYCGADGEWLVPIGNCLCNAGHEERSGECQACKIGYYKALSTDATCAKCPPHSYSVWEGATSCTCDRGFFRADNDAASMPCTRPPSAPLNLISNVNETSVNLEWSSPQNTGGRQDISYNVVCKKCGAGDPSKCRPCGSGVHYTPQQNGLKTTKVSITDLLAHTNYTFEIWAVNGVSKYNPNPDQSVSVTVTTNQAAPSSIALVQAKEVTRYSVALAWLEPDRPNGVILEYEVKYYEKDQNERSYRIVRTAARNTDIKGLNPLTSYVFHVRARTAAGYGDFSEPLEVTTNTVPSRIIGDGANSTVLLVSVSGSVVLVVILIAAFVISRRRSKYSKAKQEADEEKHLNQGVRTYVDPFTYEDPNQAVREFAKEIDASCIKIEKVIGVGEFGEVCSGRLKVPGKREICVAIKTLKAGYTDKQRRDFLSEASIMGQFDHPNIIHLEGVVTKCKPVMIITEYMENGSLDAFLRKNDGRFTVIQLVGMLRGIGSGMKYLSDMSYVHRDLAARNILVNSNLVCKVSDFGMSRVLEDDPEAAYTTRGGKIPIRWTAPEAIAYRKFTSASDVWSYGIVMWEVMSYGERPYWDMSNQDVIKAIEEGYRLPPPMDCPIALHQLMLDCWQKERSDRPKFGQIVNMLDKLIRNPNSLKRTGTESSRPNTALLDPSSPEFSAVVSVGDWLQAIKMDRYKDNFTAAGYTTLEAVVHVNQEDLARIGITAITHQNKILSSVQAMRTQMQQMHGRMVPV

Turning to `N=C(N)NCCC[C@@H](NC(=O)CCCCCNC(=O)Cn1cnc2c(I)c(I)c(I)c(I)c21)C(=O)N[C@H](CCCNC(=N)N)C(=O)N[C@H](CCCNC(=N)N)C(=O)N[C@H](CCCNC(=N)N)C(=O)N[C@H](CCCNC(=N)N)C(=O)N[C@H](CCCNC(=N)N)C(=O)N[C@H](CCCCN)C(N)=O` [ARC-3125, TIBI-CH2-C(=O)-Ahx-(D-Arg)6-D-Lys-NH2], the remaining activity at 1 µM was found to be 67 ± 4% in the data set with MNK1; 11 ± 11% with EIF2AK3; 77 ± 1% in the data set with MEKK1; 84 ± 2% in the data set with BRSK1; 84 ± 20% with STK33; 97 ± 4% in the data set with EPH-A4. Besides, the remaining activity at 1 µM with MARK1 came out at 76 ± 4%.
On to `N=C(N)NCCC[C@@H](NC(=O)CCCCCNCc1nc2c(sc3cc(Br)cnc32)c(=O)[nH]1)C(=O)N[C@H](CCCNC(=N)N)C(=O)N[C@H](CCCNC(=N)N)C(=O)N[C@H](CCCNC(=N)N)C(=O)N[C@H](CCCNC(=N)N)C(=O)N[C@H](CCCNC(=N)N)C(=O)N[C@H](CCCCN)C(N)=O` [ARC-3126, BPTP-Ahx-(D-Arg)6-D-Lys-NH2] (X3-[dR][dR][dR][dR][dR][dR][dK]-NH2), for which the remaining activity at 1 µM with MNK1 is 89 ± 5%; with EIF2AK3, 60 ± 6%; with MEKK1, 103 ± 2%; with BRSK1, 50 ± 10%; with STK33 it was 107 ± 6%; with EPH-A4, 107 ± 13%. The remaining activity at 1 µM with MARK1 was found to be 94%.
With `N=C(N)NCCC[C@@H](NC(=O)CNC(=O)[C@@H](CCCNC(=N)N)NC(=O)[C@@H](CCCNC(=N)N)NC(=O)CCCCCCCNCc1nc2c(sc3cc(Br)cnc32)c(=O)[nH]1)C(=O)N[C@H](CCCCN)C(N)=O` [Compound 1, BPTP-Aoc-(D-Arg)2-Gly-D-Arg-D-Lys-NH2], the remaining activity at 1 µM is 102 ± 3% with MNK1; 94 ± 7% with EIF2AK3; 108 ± 16% with MEKK1; 107 ± 5% with BRSK1; 110 ± 2% with STK33; 97 ± 2% in the data set with EPH-A4. Besides, the remaining activity at 1 µM with MARK1 was determined as 110 ± 15%.
As for `N=C(N)NCCC[C@@H](NC(=O)CNC(=O)[C@@H](CCCNC(=N)N)NC(=O)[C@@H](CCCNC(=N)N)NC(=O)CCCCCCCNCc1nc2c(sc3ccc(Br)cc32)c(=O)[nH]1)C(=O)N[C@H](CCCCN)C(N)=O` [Compound 2, BBTP-Aoc-(D-Arg)2-Gly-D-Arg-D-Lys-NH2], the remaining activity at 1 µM in the data set with MNK1 amounted to 66 ± 7%; with EIF2AK3, 98 ± 5%; in the data set with MEKK1, 119 ± 5%; with BRSK1, 101%; with STK33, 106 ± 3%; in the data set with EPH-A4 it was 103 ± 16%. Further, in the data set with MARK1, the remaining activity at 1 µM is 113 ± 1%.
In the case of `N=C(N)NCCC[C@@H](NC(=O)CNC(=O)[C@@H](CCCNC(=N)N)NC(=O)[C@@H](CCCNC(=N)N)NC(=O)Cn1cc(CNCc2nc3c(sc4ccc(Br)cc43)c(=O)[nH]2)nn1)C(=O)N[C@H](CCCCN)C(N)=O` [Compound 3, BBTP-Amt-(D-Arg)2-Gly-D-Arg-D-Lys-NH2], the remaining activity at 1 µM with MNK1 was determined as 89 ± 8%; with EIF2AK3, 113 ± 13%; in the data set with MEKK1 it was 98 ± 2%; in the data set with BRSK1, 90 ± 11%; with STK33 it was 91%; in the data set with EPH-A4 it was 95 ± 5%. Further, in the data set with MARK1, the remaining activity at 1 µM was found to be 106 ± 2%.
